Assay results from patent US20090124546A1 (EBERHARD KARLS UNIVERSITAET TUEBINGEN UNIVERSITAETSKILINIKUM, published 2009).

Target: the molecule itself
Test: SDS-PAGE and Western blot of synthetic peptide (self-association)
Procedure: Western blot analysis. After physical exercise sweat of the forehead was collected and analyzed by Western blot as already described (Rieg, S. et al. 2006 J. Investig. Dermatol. 126:354-365). Briefly, sweat was centrifuged 3 min at 13,000 rpm (16,000×g) to remove particles and frozen. Then, 15-μl portions of the samples and 4 μg of the DCD peptides LEK-45 and DCD-1L dissolved in water were separated by sodium dodecyl sulfate-polyacrylamide gel electrophoresis (using 15% acrylamide with 0.05% bisacrylamide), transferred electrophoretically (1200 mA/h) onto polyvinylidene difluoride membrane sheets (Immobilon-PSQ; Millipore, Germany) with a tank type blotter and then blocked in 10% nonfat milk in PBS (pH 7.4) for 30 min at room temperature. After incubation with a rabbit polyclonal anti-DCD antibody (1:2,000) that detects the C terminus of DCD-1L overnight at 4° C., the membrane sheets were washed with phosphate buffer and incubated with an anti-rabbit secondary biotin-conjugated polyclonal antibody (1:1,500 in blocking solution). After washing in phosphate buffer the Streptavidin-AP-conjugate (Roche, Mannheim, Germany) was used for the detection of biotin-labeled secondary antibody. The membrane was immersed in CDP-Star solution (Western Lightning chemiluminescence reagents for AP; Roche) for 10 min and then exposed to X-ray film (Eastman Kodak, Rochester, N.Y.).

Protein | binding result
SSLLEKGLDGAKKAVGGLGKLGKDAVEDLESVGKGAVHDVKDVLDSVL (also called synthetic peptide DCD-1L) [DCD-1L] | binds
LEKGLDGAKKAVGGLGKLGKDAVEDLESVGKGAVHDVKDVLDSVL [LEK-45] | binds
